Experimental data from patent publication US20210238276A1 (INTEGRAL MOLECULAR, published 2021).
Residue numbers refer to the chain shown, from its start. One block for each molecule: values may come before it.

Tests used:
Experiment in all cases: flow cytometry, alanine-scan library in HEK-293T
hsGLUT4 Q295A = biological target: T1, hsGLUT4 Q295A (human, UniProt P14672 1-509)
T1 sequence: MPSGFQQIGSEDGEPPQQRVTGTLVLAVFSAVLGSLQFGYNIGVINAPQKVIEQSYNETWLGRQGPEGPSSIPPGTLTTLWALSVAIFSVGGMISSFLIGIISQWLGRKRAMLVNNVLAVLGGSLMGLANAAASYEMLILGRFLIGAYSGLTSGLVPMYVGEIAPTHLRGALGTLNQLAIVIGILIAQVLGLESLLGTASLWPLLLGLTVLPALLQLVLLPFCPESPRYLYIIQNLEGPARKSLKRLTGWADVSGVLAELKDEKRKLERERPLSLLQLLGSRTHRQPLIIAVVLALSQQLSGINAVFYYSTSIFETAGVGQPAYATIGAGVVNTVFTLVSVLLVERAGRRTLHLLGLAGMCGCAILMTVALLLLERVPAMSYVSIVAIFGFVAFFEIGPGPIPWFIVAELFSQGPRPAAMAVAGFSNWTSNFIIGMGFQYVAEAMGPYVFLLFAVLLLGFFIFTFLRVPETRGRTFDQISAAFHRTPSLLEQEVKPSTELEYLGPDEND
Outline: (§1)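 HEK-293T cells expressing individual GLUT4 alanine mutants were stained 48 h post-transfection with anti-GLUT4 scFv MAbs (2 μg/ml), then biotinylated secondary and streptavidin-PerCP, and read by high-throughput flow cytometry. Where used, cytochalasin B (10 uM final) was given for 30 min before and during primary antibody staining.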

hsGLUT4 E162A = biological target: T2, hsGLUT4 E162A (human, UniProt P14672 1-509)
T2 sequence: T1 sequence with E162A, A295Q
Outline: as §1

hsGLUT4 M158A = biological target: T3, hsGLUT4 M158A (human, UniProt P14672 1-509)
T3 sequence: T1 sequence with M158A, A295Q
Outline: as §1

hsGLUT4 S310A = biological target: T4, hsGLUT4 S310A (human, UniProt P14672 1-509)
T4 sequence: T1 sequence with A295Q, S310A
Outline: as §1

% of binding to wild type GLUT4 (hsGLUT4 Q295A): 81%
% of binding to wild type GLUT4 (hsGLUT4 E162A): 87%
% of binding to wild type GLUT4 (hsGLUT4 M158A): 95%
% of binding to wild type GLUT4 (hsGLUT4 S310A): 93%
Molecule: 1F8 (antibody)

% of binding to wild type GLUT4 (hsGLUT4 Q295A): 102%
% of binding to wild type GLUT4 (hsGLUT4 E162A): 83%
% of binding to wild type GLUT4 (hsGLUT4 M158A): 126%
% of binding to wild type GLUT4 (hsGLUT4 S310A): 101%
B1: AB101 (scFv)
scFv: ALTQPSSVSANPGETVKITCSGSSNSYGWYQQKSPGSAPVTVIYYNDKRPSDIPSRFSGSKSDSTHTLTITGVRAEDEAVYFCGSYDSTYVGIFGAGTTLTVLGQSSRSSGGGGSSGGGGSAVTLDESGGGLQTPGGTLSLVCKASGFTFSSNAMGWVRQAPGKGLEWVAGISSDGRYTKYGSAVKGRATISRDNGQSTVRLQLNNLRAEDTGTYFCAKAFGNNYRRIYAGQIDAWGHGTEVIVSS
notes: Chicken-derived clone used as a control; the four lead clones were tested as scFv-human IgG1 Fc; also called MAb AB101

B2: AB111 (Fc fusion)
scFv: ALTQPSSVSANPGETVKITCSGSGSWYGWFQQKSPGSAPVTVIYSNDKRPSDIPSRFSGSKSGSTSTLTITGVQVEDEAVYYCGNWDIFGAGTTLTVLGQSSRSSGGGGSSGGGGSAVTLDESGGGLQTPGGALSLVCKASGFTFSSHGMGWVRQAPGKGLEWVASISTGRYTFYAPAVKGRATISRDNGQSTVRLQLNNLRAEDTATYYCTKCAGLNGCGGGEIDAWGHGTEVIVSS
notes: Bivalent scFv-Fc; also called MAb AB111; not shown: Fc fragment of human IgG1, cloned in frame with the scFv
% of binding to wild type GLUT4 (hsGLUT4 Q295A): 138%
% of binding to wild type GLUT4 (hsGLUT4 E162A): 72%
% of binding to wild type GLUT4 (hsGLUT4 M158A): 107%
% of binding to wild type GLUT4 (hsGLUT4 S310A): 130%

B3: AB108 (Fc fusion)
scFv: ALTQPSSVSANLGGTVKITCSGSSGSYGWYQQKAPGSAPVTLIYRNDKRPSDIPSRFSGSESGSTGTLTITGVQAEDEAVYFCGGYDSSAGYAAFGAGTTLTVLGQSSRSSGGGGSSGGGGSAVTLDESGGGLQTPGGALSLVCKASGFTFSSHGMGWVRQAPGKGLEWVGSISTGRYTFYAPAVKGRATISRDNGQSTLRLQLNNLRAEDTGTYYCTKCAGLNGCGGGEIDAWGHGTEVIVSS
notes: Bivalent scFv-Fc; also called MAb AB108; not shown: Fc fragment of human IgG1, cloned in frame with the scFv
% of binding to wild type GLUT4 (hsGLUT4 Q295A): 113%
% of binding to wild type GLUT4 (hsGLUT4 E162A): 41%
% of binding to wild type GLUT4 (hsGLUT4 M158A): 110%
% of binding to wild type GLUT4 (hsGLUT4 S310A): 97%
